Experiment [1] concerns the target T1, IL13RA2 Protein, Rhesus macaque, His tag (Rhesus macaque, UniProt A0A5F8A9D9 27-343).
T1 construct: the summary sentence says cynomolgous; also called Rhesus macaque IL13R alpha 2 protein with His tag; cynomolgous IL 13RA2 (as the text calls it); not shown: His tag
T1 sequence: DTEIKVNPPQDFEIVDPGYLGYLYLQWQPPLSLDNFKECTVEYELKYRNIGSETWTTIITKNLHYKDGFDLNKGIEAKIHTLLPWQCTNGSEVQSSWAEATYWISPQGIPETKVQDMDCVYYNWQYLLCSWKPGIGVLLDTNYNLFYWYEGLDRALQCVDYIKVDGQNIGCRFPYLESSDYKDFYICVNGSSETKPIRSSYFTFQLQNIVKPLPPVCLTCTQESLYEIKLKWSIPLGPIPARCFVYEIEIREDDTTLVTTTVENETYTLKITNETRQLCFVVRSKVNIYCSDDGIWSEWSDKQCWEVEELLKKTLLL
As to the kind of experiment: BLI; biotinylated VHH captured on streptavidin biosensor, antigen 1 uM in solution. As for the experimental part:
(§1) Binding Affinity for the VH domains with IL13Rα2 are calculated as follows: Biotinylated VHHs were individually captured on streptavidin biosensors. VHH-captured biosensors were dipped in wells containing antigen and the binding response was measured. Biosensors were later dipped in buffer wells to observe the dissociation of bound antigen from captured VHH. (Schematic representation of the process depicted in FIG. 26, upper left corner). In this case, the IL13RA2 protein used was human recombinant protein extracellular domain; Rhesus macaque IL13R alpha 2 protein with His tag or mouse recombinant His tagged protein or irrelevant protein His tagged were used as controls.

The target of experiment [2] is T2, IL13RA2 Protein, Human, Recombinant (ECD)-His tag (human, UniProt Q14627 27-343).
T2 construct: extracellular domain; also called human recombinant protein extracellular domain; human IL13Ra2-His6
T2 sequence: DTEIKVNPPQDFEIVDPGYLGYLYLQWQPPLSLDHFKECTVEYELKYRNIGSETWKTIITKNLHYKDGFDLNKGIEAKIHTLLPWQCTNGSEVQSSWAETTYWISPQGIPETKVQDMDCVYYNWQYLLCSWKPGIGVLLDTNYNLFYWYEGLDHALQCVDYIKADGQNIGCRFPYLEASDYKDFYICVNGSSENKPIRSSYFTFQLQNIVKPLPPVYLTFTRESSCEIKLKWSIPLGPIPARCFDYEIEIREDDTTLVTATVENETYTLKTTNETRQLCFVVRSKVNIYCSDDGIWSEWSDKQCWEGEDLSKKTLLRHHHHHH
Described as above. As for the experimental part:
as §1

Experiment [3] addresses T3, IL13RA2 Protein, mouse Recombinant- His tag (mouse, UniProt O88786 22-334, limits assumed).
T3 construct: also called mouse recombinant His tagged protein; not shown: His tag
T3 sequence (looked up): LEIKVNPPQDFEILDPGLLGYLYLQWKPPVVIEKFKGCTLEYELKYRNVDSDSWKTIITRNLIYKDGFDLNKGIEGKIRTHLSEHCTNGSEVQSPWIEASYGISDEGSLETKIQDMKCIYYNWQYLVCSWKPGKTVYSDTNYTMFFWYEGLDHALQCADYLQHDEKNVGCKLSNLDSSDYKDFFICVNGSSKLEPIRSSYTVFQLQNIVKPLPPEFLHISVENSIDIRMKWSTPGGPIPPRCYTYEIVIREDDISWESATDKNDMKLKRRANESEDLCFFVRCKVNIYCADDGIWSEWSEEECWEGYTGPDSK
The experiment is described as above. As for the experimental part:
as §1

For a further experiment, the target named is T4, Mouse CD70 mFc (mouse, UniProt O55237 45-195).
T4 construct: not shown: mFc
T4 sequence (looked up): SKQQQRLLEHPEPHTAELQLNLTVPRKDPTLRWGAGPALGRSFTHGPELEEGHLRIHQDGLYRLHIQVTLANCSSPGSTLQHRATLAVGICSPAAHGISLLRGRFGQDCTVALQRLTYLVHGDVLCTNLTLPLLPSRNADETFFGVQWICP
As to the kind of experiment: BLI, single point; His-tagged VHH captured on HIS1K biosensor, antigen 1 uM in solution. On the procedure: (§2) Next the polypeptides were characterized for CD70 binding kinetics, e.g. by affinity measurements. An affinity measurement method used in this study is illustrated in FIG. 1A, left bottom graphic image. Briefly, His-tagged VHH constructs were individually captured on HIS1K biosensors. VHH-captured biosensors were dipped in wells containing antigen and binding responses were measured. Biosensors were later dipped in buffer wells to observe the dissociation of bound antigen from the VHHs. Biosensors were regenerated and similar binding kinetic assays were performed for subsequent antigens. Single point KD analysis using BioLayer interferometry with a soluble VHH format was undertaken.

The next experiment has as its target T5, Human CD70 mFc (human, UniProt P32970 39-193).
T5 construct: not shown: mFc
T5 sequence (looked up): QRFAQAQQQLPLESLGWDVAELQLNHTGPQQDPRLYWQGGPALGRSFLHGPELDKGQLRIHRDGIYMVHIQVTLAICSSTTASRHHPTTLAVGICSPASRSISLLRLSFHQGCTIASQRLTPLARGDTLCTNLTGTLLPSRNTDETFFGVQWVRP
The description is as above. On the procedure: as §2

Experiment [4] deals with T1, IL13RA2 Protein, Rhesus macaque, His tag. Briefly: BLI; summary of Tables 9A-9C. As for the experimental part:
as §1

In experiment [5] the target is T3, IL13RA2 Protein, mouse Recombinant- His …. Briefly: BLI; summary of Tables 9A-9C. On the procedure:
as §1

Changes are numbered by the printed parent chain.

B1: VH43f2 (VHH)
VHH: QVQLQESGGGLVQPGGSLRLSCTASGSIRGIGYMAWGRQGPGKPRELIATINSAGDTNYAESVKGRFTVSRDNAENTLYLQMNNLKSEDTAVYYCNARPGLQSYWGQGTQVTVSS
modifications: biotinylated (site not stated)
notes: Expressed in E. coli and 6xHIS purified; also called VH43f2-Biotin; Anti-IL13Rα2 VH43
For B1, in experiment [1], the “Binding Response” value came out at 0.96 nm, the Kd turned out to be 27.1 nM, the koff amounted to 0.00164 s⁻¹ and the kon was determined as 60500 M⁻¹ s⁻¹. In addition, in experiment [1], the t½ was 7.04 min. In addition, in experiment [2], the “Binding Response” value is 0.92 nm, the Kd was found to be 4.65 nM, the koff was determined as 0.000941 s⁻¹ and the t½ came to 12.3 min. The “Binding Response” value in experiment [3] is -0.04 nm.

B2: VH52f3 (VHH)
VHH: QVQLQESGGGLVQPGGSLRLSCEVSGSIFSINRMAWYRQVPEKEREMVAQITYGDTIKYYGSAKGRFTISRDSAKNAVYLQMNSLKPEDTAVYRCNIVGVLTTGHYEDSFWGQGTQVTVPS
modifications: biotinylated (site not stated)
notes: Expressed in E. coli and 6xHIS purified; also called VH52f3 Biotin; Anti-IL13Rα2 VH52
Turning to B2, in experiment [1], the “Binding Response” value was 1.13 nm, the dissociation constant (Kd) was at most 1.49 nM, the dissociation rate constant (koff) was at most 0.0001 s⁻¹ and the kon turned out to be 67000 M⁻¹ s⁻¹. In experiment [1], this molecule returned a t½ of at least 116 min. Besides, in experiment [2], the “Binding Response” value is 0.87 nm, the Kd is at most 0.806 nM, the dissociation rate constant (koff) was at most 0.0001 s⁻¹ and the t½ was at least 116 min. Further, the “Binding Response” value in experiment [3] was -0.02 nm.

B3: VH53f3 (VHH)
VHH: B2 VHH with F29S, E42G, R71K, D108N, P120S
modifications: biotinylated (site not stated)
notes: Expressed in E. coli and 6xHIS purified; also called VH53f3 Biotin; Anti-IL13Rα2 VH53
B3: in experiment [1], the “Binding Response” value stood at 1.35 nm, the Kd was at most 1.42 nM, the dissociation rate constant (koff) was at most 0.0001 s⁻¹ and the kon stood at 70200 M⁻¹ s⁻¹. In addition, the t½ in experiment [1] was at least 116 min. Moreover, in experiment [2], the “Binding Response” value came to 1.04 nm, the dissociation constant (Kd) turned out to be 0.89 nM, the off-rate (koff) turned out to be 0.000118 s⁻¹ and the t½ turned out to be 98 min. Moreover, the “Binding Response” value in experiment [3] was -0.01 nm.

B4: IL13Ra2_2TIG4_f3 (VHH)
VHH: QVQLQESGGGLVQPGGSLRLSCAASGRTYGMGWFRQAPGKEREFVAVGVWSSGNTYYADFARGRFTISRDNAKNTVYLQMDSLKPEDTAVYYCAAPRYSSYTTYHAAYDYWGPGTQVTVSS
modifications: biotinylated (site not stated)
notes: Expressed in E. coli and 6xHIS purified; also called IL13Ra2_2TIG4_f3-Biotin
For the molecule B4, in experiment [1], the “Binding Response” value was determined as 1.17 nm, the Kd was determined as 3.62 nM, the koff was determined as 0.000388 s⁻¹ and the kon came out at 107000 M⁻¹ s⁻¹. For the same molecule, in experiment [1], the t½ worked out at 30 min. Further, in experiment [2], the “Binding Response” value came out at 0.72 nm, the dissociation constant Kd worked out at 5.02 nM, the koff turned out to be 0.000697 s⁻¹ and the t½ was found to be 17 min. Besides, the “Binding Response” value in experiment [3] was -0.02 nm.

B5: Anti-CD70 VHH clone 3CEK186 (VHH)
VHH: QVQLQESGGGLVQTGGSLRLACTASGFTFDDYAIAWFRQAPGKEREFVAAISWSGGTTHYADSVKGRFTISRDNAKNTLYLQMSSLKPEDTAVYFCAKSLRSSPSSRWFGSRGQGTQVTVSS
notes: Soluble His-tagged VHH monomer captured on HIS1K biosensors; also called C1; C1 (WT)
For B5, the “Binding Response” value in the experiment with Mouse CD70 mFc turned out to be 0.01 nm.

B6: Anti-CD70 VHH, 3HCS92 (VHH)
VHH: QVQLQESGGGLVQAGGSLRLSCAAPRSIFSINAMGWYRQAPGKQRELVAAITSGGSPTYADSVKGRFTISRDNAKNTVYLQMNSLKAEDTAVYYCATGPYGLDNALDAWGQGTQVTVSS
notes: Soluble His-tagged VHH monomer captured on HIS1K biosensors; also called H1; H1 (WT)
Regarding B6, in the experiment with Mouse CD70 mFc, the “Binding Response” value was 0.03 nm, the Kd came to 334 nM, the dissociation rate constant (koff) was 0.000427 s⁻¹ and the kon came out at 1280 M⁻¹ s⁻¹. The same molecule displayed a t½ in the experiment with Mouse CD70 mFc of 27 min. Besides, in the experiment with Human CD70 mFc, the “Binding Response” value came to 0.87 nm, the Kd was found to be 5.29 nM, the koff amounted to 0.000377 s⁻¹ and the kon was determined as 71300 M⁻¹ s⁻¹. This molecule returned a t½ with Human CD70 mFc of 31 min.

B7: VH57f5 (VHH)
VHH: QVQLQESGGGLVQPGGSLRLSCAASGSIFNTNGMGWYRQAPGKQRERVAGISSGGNTVYAASVEGRFTISRDNAKNTGYLQMNNLKPEDTAVYYCRVAGRQDDYWGQGTQVTVSS
modifications: biotinylated (site not stated)
notes: Expressed in E. coli and 6xHIS purified; also called VH57f5 Biotin; Anti-IL13Rα2 VH57
B7: the “fold decrease in affinity compared to human counterpart” value in experiment [4] is about 2 fold. The “fold decrease in affinity compared to human counterpart” value in experiment [5] was about 2 fold. In experiment [1], the “Binding Response” value is 0.93 nm, the Kd is 112 nM, the koff was 0.00485 s⁻¹ and the kon was 41700 M⁻¹ s⁻¹. Moreover, the t½ in experiment [1] was found to be 2.4 min. In experiment [2], the “Binding Response” value stood at 1.36 nm, the equilibrium dissociation constant (Kd) amounted to 1.84 nM, the koff amounted to 0.000397 s⁻¹ and the t½ was 29 min. In addition, in experiment [3], the “Binding Response” value is 1.17 nm, the equilibrium dissociation constant (Kd) stood at 33.7 nM, the off-rate (koff) came to 0.00485 s⁻¹ and the association rate constant (kon) is 140000 M⁻¹ s⁻¹. For the same molecule, in experiment [3], the t½ was 2.46 min.

B8: VH36f1 (VHH)
VHH: QVQLQESGGGSVQPGGSLRLSCAASGINISSDVMEWFRQGPGEQRELVAHITTNSRTEYADFVKGRFTISRANAKNTLYLQMNGLKPEDTALYYCALRRGGRILWGQGTQVTVSS
modifications: biotinylated (site not stated)
notes: Expressed in E. coli and 6xHIS purified; also called VH36f1 Biotin; Anti-IL13Rα2 VH36
For the molecule B8, in experiment [1], the “Binding Response” value was determined as 1.02 nm, the dissociation constant Kd was at most 1.44 nM, the off-rate (koff) was at most 0.0001 s⁻¹ and the on-rate constant (kon) is 69300 M⁻¹ s⁻¹. The t½ in experiment [1] is at least 116 min. For the same molecule, in experiment [2], the “Binding Response” value amounted to 0.67 nm, the Kd came to 1.3 nM, the off-rate constant (koff) worked out at 0.000133 s⁻¹ and the t½ was determined as 87 min. Further, the “Binding Response” value in experiment [3] was -0.01 nm.

(Values after US20250090663A1 (MYELOID THERAPEUTICS, published 2025).)
